Experimental data taken from article PMC6465933, “Direct Binding of the Flexible C-Terminal Segment of Periaxin to β4 Integrin Suggests a Molecular Basis for CMT4F” (Frontiers in Molecular Neuroscience, 2019).

T1: β4 integrin FNIII-3 (Homo sapiens, UniProt P16144)
T1 chain: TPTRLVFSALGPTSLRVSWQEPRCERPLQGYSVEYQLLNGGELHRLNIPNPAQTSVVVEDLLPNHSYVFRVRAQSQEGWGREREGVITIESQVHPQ

B1: periaxin C-terminal segment (protein)
chain: SGRRGRVRVRLPRVGLAAPSKASRGQEGDAAPKSPVREKSPKFRFPRVSLSPKARSGSGDQEEGGLRVRLPSVGFSETGAPGPARMEGAQAAAV
B2: rat L-PRX C-terminal region (amino acids 1036–1383) (domain or fragment, UniProt Q63425 1036-1383, looked up)
chain: EVELVTPGAQETEKVTSGVKPSGLQVSTTRQVVAEGQEGAQRVSSLGISLPQVELASFGEAGPEIAAPSAEGTVGSRIQVPQVMLELPGTQVAGGDLLVGEGIFKMPTVTVPQLELDVGLGHEAQAGETAKSEGGLKLKLPTLGAGGKGEGAEAQSPEAQHTFHISLPDVELTSPVSSHAEYQVVEGDGDGGHKLKVRLPLFGLARAKEGIETGEKVKSPKLRLPRVGFSQSESASGEGSPSPEEEEEGSGEGASGRRGRVRVRLPRVGLASPSKGSKGQEGDAASKSPVGEKSPKFRFPRVSLSPKARSGSKDREEGGFRVRLPSVGFSETAAPGSARIEGTQAAAI
notes: After TEV cleavage an additional N-terminal Ser residue is left; also called rPRX-C; source: E. coli BL21(DE3), purified (Ni-NTA in urea, TEV cleavage, second Ni-NTA, SEC)
B3: His-tagged rat β4-FNIII-3 (β4 integrin amino acids 1512–1602) (domain or fragment, UniProt Q64632 1512-1602, looked up)
chain: PDTPTRLVFSALGPTSLKVSWQEPQCDRALLGYSVEYQLLNGGEMHRLNIPNPGQTSVVVEDLLPNHSYVFRVRAQSQEGWGREREGVITI
notes: β4 integrin, third cytoplasmic fibronectin type III domain, rat, amino acids 1512-1602, synthetic gene in pJ401; No tag cleavage is described for this protein; the His tag is partly seen in the crystal structure; also called His-β4-FNIII-3; rFNIII-3; source: E. coli BL21(DE3), purified (Ni-NTA, SEC)

Assays:
β4 integrin FNIII-3 = target: T1, β4 integrin FNIII-3; assay: ITC
[1] = target: B3; assay: SEC-MALS; with QELS; equimolar complex (145 μM each), Superdex 200 increase 3.2/300GL, 20 mM Tris, 150 mM NaCl, pH 7.4, ambient temperature; settings: both partners purified
[2] = target: B2; assay: ITC; 680 μM β4-FNIII-3 titrated into 68 μM PRX-C, 25°C, 20 mM HEPES, 150 mM NaCl, pH 7.5; settings: both partners purified

## B1
β4 integrin FNIII-3
  Kd: 1.7 µM

## B2
[1]
  stoichiometry N: 1

## B3
[2]
  Kd: 1.7 ± 0.1 µM
  dH: 6.2 ± 0.06 kcal/mol
  stoichiometry N: ~1
